From PMC3164674

Target: MUC1 (mucin 1) on the surface of MCF-7 cells (human (MCF-7 breast cancer cell line)) (UniProt P15941)
Assay: flow cytometry on cells
Conditions: 300 nM DNA; 5 mM Mg2+; MUC1+ MCF-7 vs MUC1- HepG2; S2.2 with 48-nt DNA spacer at 3' end; 100 mM NaCl, 5 mM MgCl2, pH 7.2, 300 nM DNA, 30 min; temperature not stated

UniProt P15941, sequence (P15941 whole entry): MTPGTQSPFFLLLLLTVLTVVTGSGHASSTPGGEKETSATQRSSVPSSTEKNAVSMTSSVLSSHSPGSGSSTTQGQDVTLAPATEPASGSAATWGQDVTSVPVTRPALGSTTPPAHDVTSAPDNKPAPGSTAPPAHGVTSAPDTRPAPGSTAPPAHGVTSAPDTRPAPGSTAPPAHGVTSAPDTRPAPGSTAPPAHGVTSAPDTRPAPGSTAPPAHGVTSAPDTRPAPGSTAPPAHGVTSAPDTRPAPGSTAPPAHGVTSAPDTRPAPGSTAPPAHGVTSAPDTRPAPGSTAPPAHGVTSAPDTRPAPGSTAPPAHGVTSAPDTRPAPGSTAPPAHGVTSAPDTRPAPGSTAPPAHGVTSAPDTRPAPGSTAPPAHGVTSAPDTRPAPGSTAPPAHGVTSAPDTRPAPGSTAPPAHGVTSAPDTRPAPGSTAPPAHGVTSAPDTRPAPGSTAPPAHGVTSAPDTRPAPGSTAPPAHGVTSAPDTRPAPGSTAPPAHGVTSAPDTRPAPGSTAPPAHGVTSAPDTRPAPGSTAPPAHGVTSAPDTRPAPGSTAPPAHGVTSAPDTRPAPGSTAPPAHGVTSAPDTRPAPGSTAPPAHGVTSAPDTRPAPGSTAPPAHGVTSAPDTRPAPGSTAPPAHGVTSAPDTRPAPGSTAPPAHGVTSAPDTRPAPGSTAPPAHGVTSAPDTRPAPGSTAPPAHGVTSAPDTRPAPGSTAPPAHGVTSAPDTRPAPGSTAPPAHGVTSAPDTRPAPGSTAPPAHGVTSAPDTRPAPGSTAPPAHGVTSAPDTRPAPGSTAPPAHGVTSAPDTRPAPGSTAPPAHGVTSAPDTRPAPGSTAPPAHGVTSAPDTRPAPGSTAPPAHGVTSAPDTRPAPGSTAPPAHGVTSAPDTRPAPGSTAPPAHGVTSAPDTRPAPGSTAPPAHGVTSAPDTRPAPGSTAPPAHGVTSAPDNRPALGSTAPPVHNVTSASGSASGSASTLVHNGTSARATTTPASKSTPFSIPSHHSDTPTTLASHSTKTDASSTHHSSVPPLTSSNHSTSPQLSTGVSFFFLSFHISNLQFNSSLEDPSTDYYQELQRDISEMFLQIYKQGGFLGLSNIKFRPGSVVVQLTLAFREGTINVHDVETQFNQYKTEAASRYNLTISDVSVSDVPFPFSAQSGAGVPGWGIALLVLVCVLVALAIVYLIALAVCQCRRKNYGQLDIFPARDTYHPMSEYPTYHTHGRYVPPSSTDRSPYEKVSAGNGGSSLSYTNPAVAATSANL

In the case of “GCAGTTGATCCTTTGGATACCCTGGTTCCCTTCCTTCTCTCTTCCTCTCTCCTTCTCTCTTCCTCTCTCCTTC [S2.2-spacer]”, the binding signal (fold (mean fluorescence MCF-7/HepG2)) is reported as 3.5.
